Legend:
[1] = test system: PPIs of the SKEMPI data set (by PDBID); conditions: ref SKEMPI, cited from earlier work; for sk_ddG_kJ (SKEMPI experimental ΔΔG): r_group FAMILYVW; for sk_ddG_kJ (SKEMPI experimental ΔΔG, single mutation to alanine): complex given by PDBID; for sk_ddG_kJ (SKEMPI experimental ΔΔG of binding, mutation to alanine): single mutation to alanine in the complex of the given PDBID
[2] = test system: PPIs of the SKEMPI data set (by PDBID); assay: SKEMPI experimental ΔΔG, single mutations to alanine; assay type: binding; conditions: for sk_class: class of the SKEMPI experimental ΔΔG; for sk_class (class of the SKEMPI experimental ΔΔG): ref SKEMPI
[3] = single mutation to alanine, sheet sortedByGroup
[4] = sheet sortedByGroup, r_group DERKH
[5] = Positive / Neutral / Negative by ΔΔG threshold 4.184 kJ/mol

B1: 1A4Y WA261A (protein, UniProt P13489 2-461, looked up, variant W261A)
Ribonuclease inhibitor: SLDIQSLDIQCEELSDARWAELLPLLQQCQVVRLDDCGLTEARCKDISSALRVNPALAELNLRSNELGDVGVHCVLQGLQTPSCKIQKLSLQNCCLTGAGCGVLSSTLRTLPTLQELHLSDNLLGDAGLQLLCEGLLDPQCRLEKLQLEYCSLSAASCEPLASVLRAKPDFKELTVSNNDINEAGVRVLCQGLKDSPCQLEALKLESCGVTSDNCRDLCGIVASKASLRELALGSNKLGDVGMAELCPGLLHPSSRLRTLAIWECGITAKGCGDLCRVLRAKESLKELSLAGNELGDEGARLLCETLLEPGCQLESLWVKSCSFTAACCSHFSSVLAQNRFLLELQISNNRLEDAGVRELCQGLGQPGSVLRVLWLADCDVSDSSCSSLAATLLANHSLRELDLSNNCLGDAGILQLVESVRQPGCLLEQLVLYDIYWSEEMEDRLQALEKDKPSLRVIS
For B1, the “sk_ddG_kJ (SKEMPI experimental ΔΔG)” value [1, 3] is given as 0.38 kJ and the sk_class [2] is given as “Neutral (neutral (little effect) 4.184 kJ/mol < ΔΔG > −4.184 kJ/mol)”.

B2: 1A4Y WA375A (protein, UniProt P13489 2-461, looked up, variant W375A)
Ribonuclease inhibitor: SLDIQSLDIQCEELSDARWAELLPLLQQCQVVRLDDCGLTEARCKDISSALRVNPALAELNLRSNELGDVGVHCVLQGLQTPSCKIQKLSLQNCCLTGAGCGVLSSTLRTLPTLQELHLSDNLLGDAGLQLLCEGLLDPQCRLEKLQLEYCSLSAASCEPLASVLRAKPDFKELTVSNNDINEAGVRVLCQGLKDSPCQLEALKLESCGVTSDNCRDLCGIVASKASLRELALGSNKLGDVGMAELCPGLLHPSSRLRTLWIWECGITAKGCGDLCRVLRAKESLKELSLAGNELGDEGARLLCETLLEPGCQLESLWVKSCSFTAACCSHFSSVLAQNRFLLELQISNNRLEDAGVRELCQGLGQPGSVLRVLALADCDVSDSSCSSLAATLLANHSLRELDLSNNCLGDAGILQLVESVRQPGCLLEQLVLYDIYWSEEMEDRLQALEKDKPSLRVIS
For B2, the “sk_ddG_kJ (SKEMPI experimental ΔΔG)” value [1, 3] is given as 4.31 kJ and the sk_class [2] is given as “Positive (positive (a hot residue) ΔΔG ≥ 4.184 kJ/mol)”.

B3: 1A4Y WA263A (protein, UniProt P13489 2-461, looked up, variant W263A)
Ribonuclease inhibitor: SLDIQSLDIQCEELSDARWAELLPLLQQCQVVRLDDCGLTEARCKDISSALRVNPALAELNLRSNELGDVGVHCVLQGLQTPSCKIQKLSLQNCCLTGAGCGVLSSTLRTLPTLQELHLSDNLLGDAGLQLLCEGLLDPQCRLEKLQLEYCSLSAASCEPLASVLRAKPDFKELTVSNNDINEAGVRVLCQGLKDSPCQLEALKLESCGVTSDNCRDLCGIVASKASLRELALGSNKLGDVGMAELCPGLLHPSSRLRTLWIAECGITAKGCGDLCRVLRAKESLKELSLAGNELGDEGARLLCETLLEPGCQLESLWVKSCSFTAACCSHFSSVLAQNRFLLELQISNNRLEDAGVRELCQGLGQPGSVLRVLWLADCDVSDSSCSSLAATLLANHSLRELDLSNNCLGDAGILQLVESVRQPGCLLEQLVLYDIYWSEEMEDRLQALEKDKPSLRVIS
For B3, the “sk_ddG_kJ (SKEMPI experimental ΔΔG)” value [1, 3] is given as 4.85 kJ and the sk_class [2] is given as “Positive (positive (a hot residue) ΔΔG ≥ 4.184 kJ/mol)”.

B4: 1A4Y WA318A (protein, UniProt P13489 2-461, looked up, variant W318A)
Ribonuclease inhibitor: SLDIQSLDIQCEELSDARWAELLPLLQQCQVVRLDDCGLTEARCKDISSALRVNPALAELNLRSNELGDVGVHCVLQGLQTPSCKIQKLSLQNCCLTGAGCGVLSSTLRTLPTLQELHLSDNLLGDAGLQLLCEGLLDPQCRLEKLQLEYCSLSAASCEPLASVLRAKPDFKELTVSNNDINEAGVRVLCQGLKDSPCQLEALKLESCGVTSDNCRDLCGIVASKASLRELALGSNKLGDVGMAELCPGLLHPSSRLRTLWIWECGITAKGCGDLCRVLRAKESLKELSLAGNELGDEGARLLCETLLEPGCQLESLAVKSCSFTAACCSHFSSVLAQNRFLLELQISNNRLEDAGVRELCQGLGQPGSVLRVLWLADCDVSDSSCSSLAATLLANHSLRELDLSNNCLGDAGILQLVESVRQPGCLLEQLVLYDIYWSEEMEDRLQALEKDKPSLRVIS
For B4, the “sk_ddG_kJ (SKEMPI experimental ΔΔG)” value [1, 3] is given as 6.19 kJ and the sk_class [2] is given as “Positive (positive (a hot residue) ΔΔG ≥ 4.184 kJ/mol)”.

B5: 1KTZ RA25A (protein, UniProt P10600 301-412, looked up, variant R25A)
Transforming growth factor …: ALDTNYCFRNLEENCCVRPLYIDFAQDLGWKWVHEPKGYYANFCSGPCPYLRSADTTHSTVLGLYNTLNPEASASPCCVPQDLEPLTILYYVGRTPKVEQLSNMVVKSCKCS
For B5, the “sk_ddG_kJ (SKEMPI experimental ΔΔG, single mutation to alanine)” value [1, 4] is given as 6.19 kJ and the sk_class [2] is given as “Positive (positive (a hot residue) ΔΔG ≥ 4.184 kJ/mol)”.

B6: 1KTZ RA94A (protein, UniProt P10600 301-412, looked up, variant R94A)
Transforming growth factor …: ALDTNYCFRNLEENCCVRPLYIDFRQDLGWKWVHEPKGYYANFCSGPCPYLRSADTTHSTVLGLYNTLNPEASASPCCVPQDLEPLTILYYVGATPKVEQLSNMVVKSCKCS
In the case of B6, the “sk_ddG_kJ (SKEMPI experimental ΔΔG, single mutation to alanine)” value [1, 4] is given as 12.05 kJ and the sk_class [2] is given as “Positive (positive (a hot residue) ΔΔG ≥ 4.184 kJ/mol)”.

B7: 1A22 IB305A (protein, UniProt P10912 19-264, looked up, variant I105A)
extracellular domain: FSGSEATAAILSRAPWSLQSVNPGLKTNSSKEPKFTKCRSPERETFSCHWTDEVHHGTKNLGPIQLFYTRRNTQEWTQEWKECPDYVSAGENSCYFNSSFTSIWAPYCIKLTSNGGTVDEKCFSVDEIVQPDPPIALNWTLLNVSLTGIHADIQVRWEAPRNADIQKGWMVLEYELQYKEVNETKWKMMDPILTTSVPVYSLKVDKEYEVRVRSKQRNSGNYGEFSEVLYVTLPQMSQFTCEEDFY
modifications: extracellular domain
In the case of B7, the “sk_ddG_kJ (SKEMPI experimental ΔΔG of binding, mutation to alanine)” value [1] is given as 0.54 kJ and the “sk_class (class of the SKEMPI experimental ΔΔG)” value [2, 5] is given as “Neutral (neutral (little effect) 4.184 kJ/mol < ΔΔG > −4.184 kJ/mol)”.

B8: 1A22 EB291A (protein, UniProt P10912 19-264, looked up, variant E91A)
extracellular domain: FSGSEATAAILSRAPWSLQSVNPGLKTNSSKEPKFTKCRSPERETFSCHWTDEVHHGTKNLGPIQLFYTRRNTQEWTQEWKECPDYVSAGANSCYFNSSFTSIWIPYCIKLTSNGGTVDEKCFSVDEIVQPDPPIALNWTLLNVSLTGIHADIQVRWEAPRNADIQKGWMVLEYELQYKEVNETKWKMMDPILTTSVPVYSLKVDKEYEVRVRSKQRNSGNYGEFSEVLYVTLPQMSQFTCEEDFY
modifications: extracellular domain
For B8, the “sk_ddG_kJ (SKEMPI experimental ΔΔG, mutation to alanine)” value ([1]; single mutation to alanine, PPI given by PDBID, sheet sortedByGroup, r_group DERKH) is listed as 0.75 kJ and the “sk_class (class of the SKEMPI experimental ΔΔG)” value ([2]; class by ΔΔG threshold 4.184 kJ/mol) is listed as “Neutral (neutral (little effect) 4.184 kJ/mol < ΔΔG > −4.184 kJ/mol)”.

B9: 1JRH KI47A (protein, UniProt P15260 18-245, looked up, variant K47A)
extracellular domain: EMGTADLGPSSVPTPTNVTIESYNMNPIVYWEYQIMPQVPVFTVEVANYGVKNSEWIDACINISHHYCNISDHVGDPSNSLWVRVKARVGQKESAYAKSEEFAVCRDGKIGPPKLDIRKEEKQIMIDIFHPSVFVNGDEQEVDYDPETTCYIRVYNVYVRMNGSEIQYKILTQKEDDCDEIQCQLAIPVSSLNSQYCVSAEGVLHVWGVTTEKSKEVCITIFNSSIKG
modifications: extracellular domain
For B9, the “sk_ddG_kJ (SKEMPI experimental ΔΔG, single mutation to alanine)” value [1, 4] is given as 16.11 kJ and the sk_class [2] is given as “Positive (positive (a hot residue) ΔΔG ≥ 4.184 kJ/mol)”.

B10: 1JRH KI98A (protein, UniProt P15260 18-245, looked up, variant K98A)
extracellular domain: EMGTADLGPSSVPTPTNVTIESYNMNPIVYWEYQIMPQVPVFTVEVKNYGVKNSEWIDACINISHHYCNISDHVGDPSNSLWVRVKARVGQKESAYAASEEFAVCRDGKIGPPKLDIRKEEKQIMIDIFHPSVFVNGDEQEVDYDPETTCYIRVYNVYVRMNGSEIQYKILTQKEDDCDEIQCQLAIPVSSLNSQYCVSAEGVLHVWGVTTEKSKEVCITIFNSSIKG
modifications: extracellular domain
In the case of B10, the “sk_ddG_kJ (SKEMPI experimental ΔΔG, single mutation to alanine)” value [1, 4] is given as 2.80 kJ and the sk_class [2] is given as “Neutral (neutral (little effect) 4.184 kJ/mol < ΔΔG > −4.184 kJ/mol)”.

B11: 1JRH RI84A (protein, UniProt P15260 18-245, looked up, variant R84A)
extracellular domain: EMGTADLGPSSVPTPTNVTIESYNMNPIVYWEYQIMPQVPVFTVEVKNYGVKNSEWIDACINISHHYCNISDHVGDPSNSLWVAVKARVGQKESAYAKSEEFAVCRDGKIGPPKLDIRKEEKQIMIDIFHPSVFVNGDEQEVDYDPETTCYIRVYNVYVRMNGSEIQYKILTQKEDDCDEIQCQLAIPVSSLNSQYCVSAEGVLHVWGVTTEKSKEVCITIFNSSIKG
modifications: extracellular domain
For B11, the “sk_ddG_kJ (SKEMPI experimental ΔΔG, single mutation to alanine)” value [1, 4] is given as 4.31 kJ and the sk_class [2] is given as “Positive (positive (a hot residue) ΔΔG ≥ 4.184 kJ/mol)”.

B12: 1JRH KI52A (protein, UniProt P15260 18-245, looked up, variant K52A)
extracellular domain: EMGTADLGPSSVPTPTNVTIESYNMNPIVYWEYQIMPQVPVFTVEVKNYGVANSEWIDACINISHHYCNISDHVGDPSNSLWVRVKARVGQKESAYAKSEEFAVCRDGKIGPPKLDIRKEEKQIMIDIFHPSVFVNGDEQEVDYDPETTCYIRVYNVYVRMNGSEIQYKILTQKEDDCDEIQCQLAIPVSSLNSQYCVSAEGVLHVWGVTTEKSKEVCITIFNSSIKG
modifications: extracellular domain
For B12, the “sk_ddG_kJ (SKEMPI experimental ΔΔG, single mutation to alanine)” value [1, 4] is listed as 15.86 kJ and the sk_class [2] is listed as “Positive (positive (a hot residue) ΔΔG ≥ 4.184 kJ/mol)”.

B13: 2PCC DA34A (protein, UniProt P00431 68-361, looked up, variant D34A)
Cytochrome c peroxidase, …: TTPLVHVASVEKGRSYEDFQKVYNAIALKLREDAEYDNYIGYGPVLVRLAWHTSGTWDKHDNTGGSYGGTYRFKKEFNDPSNAGLQNGFKFLEPIHKEFPWISSGDLFSLGGVTAVQEMQGPKIPWRCGRVDTPEDTTPDNGRLPDADKDADYVRTFFQRLNMNDREVVALMGAHALGKTHLKNSGYEGPWGAANNVFTNEFYLNLLNEDWKLEKNDANNEQWDSKSGYMMLPTDYSLIQDPKYLSIVKEYANDQDKFFKDFSKAFEKLLENGITFPKDAPSPFIFKTLEEQGL
For B13, the “sk_ddG_kJ (SKEMPI experimental ΔΔG of binding, mutation to alanine)” value [1] is given as -3.81 kJ and the “sk_class (class of the SKEMPI experimental ΔΔG)” value [2, 5] is given as “Neutral (neutral (little effect) 4.184 kJ/mol < ΔΔG > −4.184 kJ/mol)”.

B14: 2PCC EA290A (protein, UniProt P00431 68-361, looked up, variant E290A)
Cytochrome c peroxidase, …: TTPLVHVASVEKGRSYEDFQKVYNAIALKLREDDEYDNYIGYGPVLVRLAWHTSGTWDKHDNTGGSYGGTYRFKKEFNDPSNAGLQNGFKFLEPIHKEFPWISSGDLFSLGGVTAVQEMQGPKIPWRCGRVDTPEDTTPDNGRLPDADKDADYVRTFFQRLNMNDREVVALMGAHALGKTHLKNSGYEGPWGAANNVFTNEFYLNLLNEDWKLEKNDANNEQWDSKSGYMMLPTDYSLIQDPKYLSIVKEYANDQDKFFKDFSKAFEKLLENGITFPKDAPSPFIFKTLAEQGL
For B14, the “sk_ddG_kJ (SKEMPI experimental ΔΔG of binding, mutation to alanine)” value [1] is listed as 25.90 kJ and the “sk_class (class of the SKEMPI experimental ΔΔG)” value [2, 5] is listed as “Positive (positive (a hot residue) ΔΔG ≥ 4.184 kJ/mol)”.

Source: article PMC6804253, “Predicting and Experimentally Validating Hot-Spot Residues at Protein–Protein Interfaces” (ACS Chemical Biology, 2019)
